We go through two molecules from publication PMC8965161, “Suppression of ATG4B by copper inhibits autophagy and involves in Mallory body formation” (Redox Biology, 2022).

The target in one data set is ATG4B^C0-GFP (UniProt Q9Y4P1). Put plainly: differential detergent fractionation and western blot under non-reduced condition, oligomer band quantified (self-oligomer formation in cells). On the set-up: reference not given here. Particulars: HEK-293T cells, read off a plot. (In general: Immunoblotting shows a protein as a band on a membrane.)
Data set [1] concerns the molecule itself. In words: non-reduced SDS-PAGE with Coomassie staining; ATG4B protein (4 ug) treated with designed concentrations of copper ions at 4 C for 30 min, stopped with 10 mM NEM; non-reduced condition.

As for “ATG4B-GFP (from UniProt Q9Y4P1) C0 (all 14 cysteines to serines)”, the response with ATG4B^C0-GFP (Insoluble fraction, 1 mM copper ions (CuCl2) for 6 h) turned out to be 0.55; with ATG4B^C0-GFP (Insoluble fraction, no CuCl2), 0.39; with ATG4B^C0-GFP (Soluble fraction, 1 mM copper ions (CuCl2) for 6 h) it was 0.15; with ATG4B^C0-GFP (Soluble fraction, no CuCl2), 0.068.

B1: recombinant ATG4B protein without His-Tag (enzyme, human, UniProt Q9Y4P1 1-393, looked up)
chain: MDAATLTYDTLRFAEFEDFPETSEPVWILGRKYSIFTEKDEILSDVASRLWFTYRKNFPAIGGTGPTSDTGWGCMLRCGQMIFAQALVCRHLGRDWRWTQRKRQPDSYFSVLNAFIDRKDSYYSIHQIAQMGVGEGKSIGQWYGPNTVAQVLKKLAVFDTWSSLAVHIAMDNTVVMEEIRRLCRTSVPCAGATAFPADSDRHCNGFPAGAEVTNRPSPWRPLVLLIPLRLGLTDINEAYVETLKHCFMMPQSLGVIGGKPNSAHYFIGYVGEELIYLDPHTTQPAVEPTDGCFIPDESFHCQHPPCRMSIAELDPSIAVGFFCKTEDDFNDWCQQVKKLSLLGGALPMFELVELQPSHLACPDVLNLSLDSSDVERLERFFDSEDEDFEILSL
notes: ATG4B, cysteine protease, human; source: recombinant, purified, without His-Tag
B1: in data set [1], the binding result is “binds”.
